B1: 4057255 (protein)
chain: CAPLEPVYPGDNATPEQMARYAADLRRYINKLTRPRYCAPLEPVYPGDNATPEQMARYAADLRRYINKLTRPRY

Target: human Y4 receptor (human, UniProt P50391 1-375)
Assay: 125I-PP displacement

Chain of human Y4 receptor (P50391 whole entry): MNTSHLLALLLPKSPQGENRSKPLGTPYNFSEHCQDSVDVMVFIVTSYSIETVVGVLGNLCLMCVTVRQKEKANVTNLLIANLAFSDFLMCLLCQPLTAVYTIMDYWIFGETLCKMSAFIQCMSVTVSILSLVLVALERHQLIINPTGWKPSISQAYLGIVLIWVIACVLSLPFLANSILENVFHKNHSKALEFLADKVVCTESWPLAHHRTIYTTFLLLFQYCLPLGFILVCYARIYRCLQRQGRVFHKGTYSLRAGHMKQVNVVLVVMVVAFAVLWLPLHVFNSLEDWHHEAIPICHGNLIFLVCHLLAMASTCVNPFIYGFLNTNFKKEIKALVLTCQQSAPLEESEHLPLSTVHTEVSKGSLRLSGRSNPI

In order of rising IC50:
1. AKPLEPEYPGDDATPQQMARYAAELRRYINKLTRPRY [4057280]  49 pM
2. PLEPVYPGDNATPEQMARYAAELRRYINKLTRPRY [4057159]  53 pM
3. PLEPVYPGDNATPEQMAKYAADLRRYINKLTRPRY [4057261]  56 pM
4. PAPLEPVYPGDNATPEQMAKYAAELRRYINKLTRPRY [4057151]  56 pM
5. PLEPEYPGDDATPQQMARYAAELRRYINKLTRPRY [4057153]  57 pM
6. APLEPVYPGDNATPEQMARYAAELRRYINKLTRPRY [4057160]  59 pM
7. PAPLEPVYPGDNATPEQMARYAAELRRYINKLTRPRY [4057162]  60 pM
8. PAPLEPVYPGDDATPQQMAKYAADLRRYINKLTRPRY [4057273]  61 pM
9. AAPLEPVYPGDNATPEQMAKYYSELRRYINKLTRPRY [4057271]  62 pM
10. GAPLEPEYPGDDATPQQMARYAAELRRYINKLTRPRY [4057136]  64 pM
11. PAPLEPVYPGDNATPEQTAKYAADLRRYINKLTRPRY [4057148]  69 pM
12. PAPLEPVYPGDNATPEQLAKYAADLRRYINKLTRPRY [4057145]  70 pM
13. PLEPEYPGDDATPQQMAKYAADLRRYINKLTRPRY [4057256]  73 pM
14. PAPLEPEYPGDDATPQQMAKYAADLRRYINKLTRPRY [4057258]  78 pM
15. PAPLEPDYPGDDATPQQMAKYAAELRRYINKLTRPRY [4057443]  78 pM
16. HAPLEPVYPGDNATPEQMARYAADLRRYINKLTRPRY [4057338]  78 pM
17. APLEPEYPGDDATPQQMAHYAAELRRYINKLTRPRY [4057139]  78 pM
18. PAPLEPVYPGDNATPEQVAKYAADLRRYINKLTRPRY [4057146]  80 pM
19. PAPLEPVYPGDNATPEQMARYAADLRRYINKLTRPRY [4057335]  80 pM
20. PKPLEPEYPGDDATPQQMARYAAELRRYINKLTRPRY [4057279]  80 pM
21. PLEPVYPGDNATPEQMARYAADLRRYINKLTRPRY [4057334]  82 pM
22. AAPLEPEYPGDDATPQQMAKYAADLRRYINKLTRPRY [4057259]  83 pM
23. APLEPEYPGDDATPQQMAKYAADLRRYINKLTRPRY [4057257]  83 pM
24. APLEPVYPGDNATPEQMAKYYSELRRYINKLTRPRY [4057270]  85 pM
25. GPLEPEYPGDDATPQQMARYAAELRRYINKLTRPRY [4057276]  85 pM
26. PLEPEYPGDDATPQQMAHYAAELRRYINKLTRPRY [4057138]  86 pM
27. PAPLEPEYPGDDATPQQLAKYAAELRRYINKLTRPRY [4057441]  88 pM
28. GAPLEPVYPGDNATPEQMARYAAELRRYINKLTRPRY [4057163]  88 pM
29. PAPLEPTYPGDNATPEQLAKYAAELRRYINKLTRPRY [4057440]  89 pM
30. DPLEPEYPGDDATPQQMARYAAELRRYINKLTRPRY [4057277]  93 pM
31. DAPLEPEYPGDDATPQQMARYAAELRRYINKLTRPRY [4057135]  97 pM
32. PAPLEPSYPGDDATPQQMAKYAAELRRYINKLTRPRY [4057442]  101 pM
33. PAPLEPTYPGDDATPEEMAKYAAELRRYINKLTRPRY [4057445]  107 pM
34. PAPLEPTYPGDNATPEEMAKYAAELRRYINKLTRPRY [4057446]  109 pM
35. PAPLEPTYPGDDATPQEMAKYAAELRRYINKLTRPRY [4057444]  116 pM
36. AAPLEPVYPGDNATPEQMARYAAELRRYINKLTRPRY [4057161]  125 pM
37. PAPLEPEYPGDDATPQQMAHYAAELRRYINKLTRPRY [4057140]  126 pM
38. PAPLEPEYPGDNATPEQMAKYAADLRRYINKLTRPRY [4057232]  128 pM
39. PAPLEPFYPGDNATPEQMAKYAADLRRYINKLTRPRY [4057233]  130 pM
40. PAPLEPTYPGDNATPEQMAKYAADLRRYINKLTRPRY [4057229]  143 pM
41. HPLEPEYPGDDATPQQMARYAAELRRYINKLTRPRY [4057275]  162 pM
42. PAPLEPVYPGDNATPEQDAKYAADLRRYINKLTRPRY [4057147]  199 pM
43. B1  220 pM

— patent publication US20100279930A1 (published 2010)
